# Patent US20200270627A1 (COMMONWEALTH SCIENTIFIC AND INDUSTRIAL RESEARCH ORGANISATION, published 2020)
# T1: RGA4 1-171:CFP (rice, UniProt F7J0M4 1-171)
# T1 construct: not shown: C-terminal CFP tag
# T1 sequence (looked up): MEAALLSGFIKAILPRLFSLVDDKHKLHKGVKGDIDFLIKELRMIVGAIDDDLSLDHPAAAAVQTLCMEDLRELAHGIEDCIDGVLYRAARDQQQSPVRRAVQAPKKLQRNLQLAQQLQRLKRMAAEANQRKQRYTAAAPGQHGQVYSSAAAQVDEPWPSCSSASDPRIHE
# B1: Sr50 1-163:HA (other)
# chain: MNIVTGAMGSLIPKLGELLMDEYKLHKRIKKDVEFLKKELESMHAALIKVGEVPRDQLDRQVKLWADEVRELSYNMEDVVDKFLVRVDGDGIQQPHDNSGRFKELKNKMIGLFKKGRNHHRIADAIKEIKEQLQEVAARRDRNKVAVPNPMEPITIDPCLRAL
# notes: Transiently expressed in N. benthamiana leaf cells under the 35S promoter; also called full CC domain of Sr50 fused to a C-terminal HA tag; not shown: C-terminal HA tag (vector pBIN19-35S::GTW:3HA)
# B2: Sr33 1-160:HA (other)
# chain: MDIVTGAIAKLIPKLGELLVGEYKLHKGVKKNIEDLLKELKTMNAALIKIGEVPPDQLDSQDKLWADEVRELSYVIEDAVDKFLVRVHGVEPDDNTNGFKGLMKRTTKLLKKVVDKHGIAHAIKDIKKELQEVAARRDRNKFDGIASIPTEAIDPRLRAL
# notes: also called full CC domain of Sr33 fused to a C-terminal HA tag; not shown: C-terminal HA tag (vector pBIN19-35S::GTW:3HA)
# Molecular target: T1, RGA4 1-171:CFP
# Assay: co-immunoprecipitation with anti-GFP antibodies from N. benthamiana leaf cells, anti-HA immunoblot
row,Binder,binding result
1,B1,no binding
2,B2,no binding
